Experimental data published in the supplement of paper PMC9732359.
± gives the uncertainty stated by the source.

Assay: protein stability index of a GFP-peptide fusion (yeast GPS) (PSI 1-4); higher = more stable; sorted into four equal gates, so the index is relative within each strain
Outline: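 For each peptide, the protein stability index sums the read frequency in every gate after multiplying it by the gate number. Read frequencies came from plasmids that were PCR-amplified from each gate and Illumina-sequenced, with reads assigned to strains by barcodes. The gates were four equal bins of GFP/Cherry fluorescence ratio applied to mid-log yeast in leucine-free medium carrying a pooled library of tiled 17-residue yeast protein peptides fused downstream of GFP on a Cherry-expressing plasmid.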

| Sequence | protein stability index (doa10∆) | protein stability index (pdr5∆) | protein stability index (san1∆) | protein stability index (ubr1∆) |
| --- | --- | --- | --- | --- |
| IMKIGGIKLQMQNSKVE [SMC4] | 2.11 ± 0.13 | 1.82 ± 0.1 | 2.25 ± 0.12 | 2.1 ± 0.12 |
| PSIVFIDEIDAIGTKRY [RPT2] | – | 2.28 ± 0.14 | 2.14 ± 0.17 | 2.92 ± 0.19 |
| VVGQNQLIDQFEWDISN [SNF5] | 2.52 ± 0.093 | 2.62 ± 0.1 | 2.9 ± 0.062 | 3 ± 0.12 |
| KNIPKTRYNRDYMLSMA [SNU114] | 1.94 ± 0.054 | 2.4 ± 0.054 | 2.9 ± 0.056 | 1.87 ± 0.039 |
| ILDKIFYGVLDQGNGWL [RPN6] | 3.31 ± 0.096 | 2.65 ± 0.069 | 2.45 ± 0.059 | 3.11 ± 0.061 |
| LSNPSNQNICTSVTRRS [GRR1] | 2.42 ± 0.083 | 2.49 ± 0.052 | 2.62 ± 0.055 | 2.53 ± 0.039 |
| SYSPTSPSYSPTSPSYS [RPO21] | 2.53 ± 0.042 | 2.66 ± 0.041 | 2.78 ± 0.037 | 2.76 ± 0.034 |
| TIRTRKVISNPLLARKQ [RPS24A] | 1.74 ± 0.1 | 1.88 ± 0.066 | 2.35 ± 0.13 | 1.87 ± 0.089 |
| YLREDQMIDTSILPTRD [NUT1] | 3.21 ± 0.069 | 2.98 ± 0.068 | 2.94 ± 0.072 | 2.42 ± 0.048 |
| LAVLALVIVKKGEQELE [RPS6A] | 1.61 ± 0.038 | 1.56 ± 0.045 | 2 ± 0.072 | 2.54 ± 0.05 |
| NKLFTEPIKLEPVKEYT [YMR129W/POM152] | 2.34 ± 0.05 | 2.39 ± 0.06 | 2.4 ± 0.084 | 2.4 ± 0.072 |
| SESKQLGNTSSVANTPS [SWI3] | 3.08 ± 0.071 | 2.56 ± 0.057 | 2.98 ± 0.073 | 2.94 ± 0.046 |
| TVWSANFEYDLSEYDAI [YOR098C/NUP1] | 2.86 ± 0.27 | 3.31 ± 0.19 | 2.98 ± 0.27 | 3.06 ± 0.1 |
| TIEDIAVAITRASKLKI [RPO31] | 1.63 ± 0.081 | 1.76 ± 0.063 | 2.1 ± 0.12 | 1.97 ± 0.06 |
| VSFNDSQSMVTNKENNI [YIL149C/MLP2] | 2.96 ± 0.057 | 3.3 ± 0.076 | 3.02 ± 0.057 | 3.16 ± 0.046 |
| ITASTLLYADSLTAEAM [CYT1] | 2.1 ± 0.064 | 2.31 ± 0.059 | 2.51 ± 0.095 | 2.18 ± 0.039 |
| IHIQSKENYPWELYTDF [POP3] | 2.99 ± 0.095 | 3.16 ± 0.12 | 2.69 ± 0.12 | 3.12 ± 0.075 |
| MQVYLVPIERVAQLKPF [RPC37] | 1.9 ± 0.079 | 1.77 ± 0.065 | 1.87 ± 0.063 | 2.54 ± 0.058 |
| NPRKRAIPNSIIKRSNG [YMR153W/NUP53] | 2.19 ± 0.091 | 2.7 ± 0.1 | 2.67 ± 0.1 | 2.92 ± 0.12 |
| ITIFSPEGRLYQVEYAF [SCL1] | 2.58 ± 0.15 | 2.6 ± 0.11 | 2.1 ± 0.092 | 2.37 ± 0.068 |
| FSKFERSKSSHKNERRV [SKI6] | 3.16 ± 0.082 | 3.16 ± 0.08 | 3 ± 0.064 | 3.25 ± 0.07 |
| DDNEMTRDDLLTILMRS [RRI2] | 2.44 ± 0.2 | 2.66 ± 0.19 | – | – |
| PVQIVKRITQITIEPGV [RPS20] | 1.74 ± 0.15 | 1.79 ± 0.25 | 1.35 ± 0.21 | 1.65 ± 0.12 |
| PGRLDRKIEFPSLRDRR [RPT3] | 3.35 ± 0.044 | 3.31 ± 0.061 | 3.23 ± 0.048 | 3.23 ± 0.039 |
| ITARSAFVEFGASVIAG [SWP82] | 1.93 ± 0.11 | 2.53 ± 0.085 | 1.86 ± 0.11 | 2.21 ± 0.054 |
| KIREDHINKIPSNSTTT [SRB8] | 2.63 ± 0.051 | 2.71 ± 0.044 | 2.54 ± 0.056 | 2.81 ± 0.034 |
| IYSVEKKISRLPKFLTV [UBP6] | 2.04 ± 0.065 | 2.07 ± 0.066 | 2.14 ± 0.091 | 2.46 ± 0.035 |
